Test results taken from patent US20210063414A1, “METHODS FOR PREVENTING AND/OR TREATING BONE LOSS CONDITIONS BY MODULATING IRISIN” (Dana-Farber Cancer Institute, Inc., priority 2018, published 2021).

Key:
Test in all cases: Crosslinking/co-immunoprecipitation/mass spectrometry (TMT quantitative proteomics) to identify irisin receptors
Type in all cases: binding
[1] = molecular target: T1, MLO-Y4 cell surface proteins (Mus musculus, UniProt Q08189); settings: co-precipitated protein Tgm3 (TGM3_MOUSE)
T1 construct: endogenous in cells; host or cells: MLO-Y4
T1 sequence (Q08189 1-693): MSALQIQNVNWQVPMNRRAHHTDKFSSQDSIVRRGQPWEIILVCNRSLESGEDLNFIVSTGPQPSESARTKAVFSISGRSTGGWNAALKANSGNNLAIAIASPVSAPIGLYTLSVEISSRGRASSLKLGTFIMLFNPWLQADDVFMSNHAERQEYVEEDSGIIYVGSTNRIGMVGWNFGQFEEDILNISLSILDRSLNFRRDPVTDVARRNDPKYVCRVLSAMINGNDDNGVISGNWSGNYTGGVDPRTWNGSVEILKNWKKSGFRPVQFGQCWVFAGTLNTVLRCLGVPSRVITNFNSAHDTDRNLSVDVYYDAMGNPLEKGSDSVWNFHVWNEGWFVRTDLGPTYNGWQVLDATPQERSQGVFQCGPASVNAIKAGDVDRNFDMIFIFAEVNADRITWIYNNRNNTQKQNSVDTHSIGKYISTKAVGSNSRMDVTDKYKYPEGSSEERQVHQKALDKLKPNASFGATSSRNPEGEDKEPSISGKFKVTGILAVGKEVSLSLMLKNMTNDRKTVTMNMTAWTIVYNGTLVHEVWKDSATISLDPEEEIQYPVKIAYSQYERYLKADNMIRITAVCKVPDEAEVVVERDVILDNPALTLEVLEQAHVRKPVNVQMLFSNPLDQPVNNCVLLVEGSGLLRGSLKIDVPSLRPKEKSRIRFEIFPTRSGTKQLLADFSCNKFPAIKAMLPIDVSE
Description: (§1) MLO-Y4 cells were seeded on 30×150 mm type-I collagen coated dishes as described in cell culture experiment. At 60% cell density, medium was switched to FreeStyle™ 293 Expression medium. After 4 hours incubation, the cells were chilled on ice for 10 minutes, followed by treatment of 10 nM his-tag irisin or his-tag adipsin for 20 minutes. The cells were then incubated with 1.5 mM DTSSP for 30 minutes on ice to do cross-linking, after washing with 15 ml cold PBS twice. The cross-linking was quenched by addition of a final concentration of 20 mM Tris-pH 7.5. The cells were then harvested and homogenized in 1 ml RIPA buffer containing proteaseinhibitor cocktailand phosphatase-inhibitor cocktail. Whole-cell lysates were homogenized by 10 times passages through a 22G needle fitted to a 3 ml syringe. Homogenized samples were rotated gently in cold room for 20 minutes followed by 15,000×g centrifugation for 10 minutes. After addition of a final concentration of 10 mM imidazole, supernatants were incubated with 100 μl Ni-NTA agarose for 1 hour. After centrifugation at 500×g for 1 minute, the supernatants were aspirated and 1 ml cold RIPA buffer containing 10 mM imidazole were added to the agarose. After 10 minutes rotation in cold room, the supernatants were aspirated and 1 ml cold RIPA buffer containing 30 mM imidazole were added to the agarose. After repeating the washing 3 times, 0.8 ml RIPA buffer containing 250 mM imidazole was added and the agarose was gently rotated in a cold room for 20 minutes. After centrifugation at 1000×g for 2 minutes, the supernatants were transferred to 1.5 ml tube and incubated with 100 μl 0.2% sodium deoxycholate and 100 μl 10% trichloroacetic acid in ice for 1 hour. After centrifugation at 12,000×g for 10 minutes at 4° C., the supernatants were removed and 1 ml cold acetone was added to the pellets followed by vortexing for 10 seconds. After one more washing with cold acetone, the pellets were dried at 37° C., and 39 μl PBS and 13 μl 4×NuPAGE LDS were added to the pellets with a final concentration of 5 mM DTT. Solubilized proteins were incubated at 65° C. for 20 minutes followed by incubation with a final concentration of 14 mM iodoacetamide for 45 minutes in the dark. 38 μl samples were loaded to 4-12% gradient SDS-PAGE for separation followed by Coomassie Blue staining. The gels were submitted to quantitative proteomics.
(§2) For in-gel digestions, gels were stained with Coomassie Blue and were excised into 8 equal segments for control and irisin lanes. Gel pieces were destained and dehydrated with 100% acetonitrile, vacuumed dried, and digested in 25 mM HEPES (pH 8.5) with 500 ng sequencing grade trypsin (Promega) and incubated for an overnight at 37° C. (Shevchenko et al. (1996) Anal. Chem. 68:850-858). Digests were treated with 1% formic acid and purified using C18 Stage-Tips as previously described (Rappsilber et al. (2007) Nat. Protoc. 2:1896-1906). Peptides were eluted with 70% acetonitrile and 1% formic acid, then dried using a speedvac. Isobaric labeling of digested peptides was accomplished using 6-plex tandem mass tag (TMT) reagents (Thermo Fisher Scientific, Rockford, Ill.). Reagents, 5.0 mg, were dissolved in 252 μl acetonitrile (ACN) and 5 μl of the solution was added to the digested peptides dissolved in 25 μl of 200 mM HEPES, pH 8.5. After 1 hour at room temperature, the reaction was quenched by adding 1 μl of 5% hydroxylamine. Labeled peptides were combined and acidified prior to C18 Stage-Tips desalting.
(§3) All LC-MS/MS experiments were performed on an Orbitrap Fusion™ Lumos mass spectrometer (Thermo Fisher Scientific, San Jose, Calif., USA) coupled with a Proxeon EASY-nLC™ 1200 LC pump (Thermo Fisher Scientific). Peptides were separated on a 100 μm inner diameter microcapillary column packed with 35 cm of Accucore™ C18 resin (1.8 μm, 100 Å, Thermo Fisher Scientific). […]

[2] = molecular target: T2, MLO-Y4 cell surface proteins (Mus musculus, UniProt O70404); settings: co-precipitated protein Vamp8 (VAMP8_MOUSE)
T2 construct: endogenous in cells; host or cells: MLO-Y4
T2 sequence (O70404 1-101): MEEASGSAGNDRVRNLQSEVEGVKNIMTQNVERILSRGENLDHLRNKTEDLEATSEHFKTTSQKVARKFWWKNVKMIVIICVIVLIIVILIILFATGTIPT
Description: as §1, §2, §3

[3] = molecular target: T3, MLO-Y4 cell surface proteins (Mus musculus, UniProt Q9D051); settings: co-precipitated protein Pdhb (ODPB_MOUSE)
T3 construct: endogenous in cells; host or cells: MLO-Y4
T3 sequence (Q9D051 31-359): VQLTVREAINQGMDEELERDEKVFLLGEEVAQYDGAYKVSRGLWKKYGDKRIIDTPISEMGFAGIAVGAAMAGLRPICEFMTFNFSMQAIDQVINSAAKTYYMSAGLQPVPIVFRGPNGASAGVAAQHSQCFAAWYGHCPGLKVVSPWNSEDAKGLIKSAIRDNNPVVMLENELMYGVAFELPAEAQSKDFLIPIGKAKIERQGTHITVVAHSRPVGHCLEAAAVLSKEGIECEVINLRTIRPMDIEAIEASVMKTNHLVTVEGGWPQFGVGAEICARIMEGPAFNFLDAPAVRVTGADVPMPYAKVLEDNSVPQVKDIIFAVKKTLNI
Description: as §1, §2, §3

- TMT signal-to-noise ratio [1]: 274.388
- TMT signal-to-noise ratio [2]: 300.176
- TMT signal-to-noise ratio [3]: 365.712
Substance: adipsin
